# Residue numbers refer to the chain shown, from its start.
# T1: Rhesus D antigen (human, UniProt Q02161 2-417)
# T1 construct: whole, on cells; Presented on RhD-positive erythrocytes in all assays; also called RhD; RhD antigen
# T1 sequence (looked up): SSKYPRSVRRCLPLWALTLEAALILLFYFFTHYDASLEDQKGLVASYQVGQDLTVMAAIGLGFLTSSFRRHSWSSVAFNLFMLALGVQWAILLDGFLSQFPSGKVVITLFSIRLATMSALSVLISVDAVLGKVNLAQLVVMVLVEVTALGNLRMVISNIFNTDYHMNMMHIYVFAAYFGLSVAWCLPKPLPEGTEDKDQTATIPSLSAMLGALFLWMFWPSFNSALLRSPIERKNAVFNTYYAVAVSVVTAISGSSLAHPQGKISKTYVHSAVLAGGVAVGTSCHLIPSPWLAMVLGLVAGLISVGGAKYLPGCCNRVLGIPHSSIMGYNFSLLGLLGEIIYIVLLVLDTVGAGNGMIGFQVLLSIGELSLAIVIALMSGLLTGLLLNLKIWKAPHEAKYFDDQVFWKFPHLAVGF
# B1: RhD200.164G10 (Fab, V domains shown)
# VH: VQLVESGGGGVVQPGRSLRLSCAASGFTFSSYGMHWVRQAPGKGLEWVAVIWYDGSNKYYADSVKGRFTISRDNSKNTLYLQMNSLRAEDTAVYYCARESTLYSSSWYRRYYYYGMDVWGQGTTVTVSS
# VL: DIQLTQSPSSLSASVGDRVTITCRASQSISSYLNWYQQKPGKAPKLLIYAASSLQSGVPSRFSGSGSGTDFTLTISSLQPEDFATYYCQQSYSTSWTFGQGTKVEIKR
# notes: Tested as Fab (periplasmic extract)
# B2: RhD201.164H12 (Fab, V domains shown)
# VH: B1 VH with V1Q, Q2V, L3Q, V4L, E5V, S6E, G7S, G33A, W52S, G115S
# VL: EIVLTQSPATLSVSPGERATLSCRASQSVTSNLAWYQQKPGQAPRLLIYGASTRATGVPARFSGSGSGTEFSLTISSLQSEDFAVYYCQQYNNWPPIFTFGPGTKLDIKR
# notes: as for B1
# B3: RhD195.127A07 (Fab, V domains shown)
# VH: QVQLQESGPGLVKPSQTLSLTCTVSGGSISSGSYYWSWIRQPAGKGPEWIGRIYTSGSTNYNPSLKSRLTISVDTSKNQFSLKLTSVTAADTAVYYCARAPSYYDSSGYRYWYIDLWGRGTLVTVSS
# VL: DIQLTQSPSSLSASVGDRVTITCRASQNINRYLNWYQHKPGRAPELLIYAASTLRRGVPSRFSGSGSGTDFTLTISSLQPEDFATYYCQQSYSRGTFGQGTKVEIKR
# notes: as for B1
# B4: RhD157.119D11 (Fab, V domains shown)
# VH: EVQLVESGGGLVQPGGSLRLSCVASGFTFRSFDMNWVRQAPGKGLEWVSYINSRGSTIYYADSVKGRFTISRENAKNSLYLQMNSLRAEDTAVYYCARDLYGDYDPKSYYYYGMGVWGQGTTVTVSS
# VL: EIVLTQSPATLSLSPGERATLSCRASQSVSSYLAWYQQKRGQAPRLLIFNASNRATGIPARFSGSGSGTDFTLTISSLEPEDFAVYYCQQRSSWPPMYTFGQGTKLEIKR
# notes: as for B1
# B5: RhD203.179F07 (Fab, V domains shown)
# VH: EVQLVESGGGVVQPGRSLRLSCAASGFTFSNYGMHWVRQAPGKGLEWVAVIWYDGSNKYYADSVKGRFTISRDNSKNTLYLQMNSLRAEDTAVYYCAREMVSYSSSWYRRYYYYVMDVWGKGTTVTVSS
# VL: QSALTQPASVSGSPGQSITISCTATSSDIGAYNYVSWYQHHPGKAPKVIITDVNKRPSGVPDRFSGSKSGNTASLTISGLQPEDEAEYSCCSYAGTYSYVFGTGTKVTVLS
# notes: as for B1
# B6: RhD202.158E07 (Fab, V domains shown)
# VH: QVQLVESGGGVVQPGRSLRLSCAASGFTFSSYGMHWVRQAPGKGLEWVAVIWFDGSNRYYGDSVKGRVTISRDNSKNTLYLRMNSLRAEDTAVYYCAREFYTRSGLWSQGYSYYMDVWGKGTTVTVSS
# VL: EIVLTQSPGTLSLSPGERATLSCRASQSVSSSYLAWYQHKPGQAPRLLIYGSSNRATGIPDRFSGSGSGTDFTVTISRLEPEDFAVYYCQQYGTAPYTFGQGTKLEIKR
# notes: as for B1
# B7: RhD298.126E10 (Fab, V domains shown)
# VH: QVQLVESGGGVVQPGRSLRLSCAASGFTFSSYGMHWVRQAPGKGLEWVAVIWYDGSNKYYADSVKGRFTISRDNSKNTLYLQMNSVRAEDTAVYYCARDLSTQRGYSRYYYVMDVWGQGTTVTVSS
# VL: DIQMTQSPSSLSASVGDRVTITCRASQSISTYLNWYQQKPGKAPKLLISAASSLQSGVPSRFSGSGSGTDFTLTISSLQREDYAAYYCQQSYSTPPYTFGQGTKLEIKR
# notes: as for B1
# B8: RhD199.164E03 (Fab, V domains shown)
# VH: B7 VH with Y80H, V86L, D99E, L100V, S101G, T102F, Q103G, R104S, Y106W, V112G
# VL: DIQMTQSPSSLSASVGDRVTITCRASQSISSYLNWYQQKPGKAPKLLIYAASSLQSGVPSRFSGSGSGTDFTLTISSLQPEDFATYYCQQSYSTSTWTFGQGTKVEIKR
# notes: as for B1
# B9: RhD196.126H11 (Fab, V domains shown)
# VH: B7 VH with Y59D, D99E, Y110H
# VL: B7 VL with S49Y, S53T, D70H, Y83F, A85T, S93G, P96T, Y97W, L105V
# notes: as for B1
# B10: RhD198.127F10 (Fab, V domains shown)
# VH: B7 VH with E6Q, R16K, S31T, N74T, A88V, S101T, Y110H
# VL: B7 VL with S30G, T31N, Q79H, A85T
# notes: as for B1
# Target: T1, Rhesus D antigen
# Experiment: agglutination assay, Fab on RhD(+)/RhD(-) RBC mix
# Experimental: After each round of panning single colonies were picked for analysis of their binding properties to red blood cells in agglutination assays. Briefly, single colonies were inoculated into 2×YT/100 μg/mL carbenicillin/1% glucose and shaken overnight at 37° C. The next day, DeepWell plates were inoculated using 900 μl 2×YT/100 μg/mL carbenicillin/0.1% glucose and 10 μl overnight culture. The plates were shaken for two hours at 37° C., before Fab induction was performed with addition of 300 μl 2×YT/100 μg/mL carbenicillin/0.25 mM IPTG per well. The plate was shaken overnight at 30° C. The following day, the bacteria were pelleted by centrifugation (3200×g, 4° C., 10 minutes), and re-suspended in 100 μl of 0.8 M NaCl, 0.2×PBS, 8 mM EDTA, and incubated for 15 minutes on ice in order to perform a periplasmic extraction of the Fab fragments. The plate was transferred to −20° C. and finally the suspension was thawed and centrifugation was performed for 10 minutes at 4° C. and 3200×g. The periplasmic extract was used in ELISA assays for analysis of Fab content and in agglutination assays to evaluate the binding potential of the individual Fab fragments. The agglutination assay was performed as follows: RhD(−) and RhD(+) RBC were mixed in a 1:1 ratio, and washed 3 times in PBS. After the final wash, the cell mix was re-suspended in 1% BSA in PBS at a density of 1% cells, 50 μl was added to each well of a 96-plate. Periplasmic extracts were added to the wells. As a positive control Rhesogamma P immunoglobulin (Aventis) was used according to the manufacturer's instructions. The plates were incubated for one hour at room temperature with gentle shaking. The cells were washed three times with PBS, before the secondary antibody was added (goat anti-human Fab/FITC conjugate, Sigma F5512) in a 1:100 dilution. The plates were left for agglutination for one hour at room temperature without shaking. Fab fragments positive in the agglutination assay was determined by visual inspection, and recorded by taking a picture. Quantization of the binding activity of the Fab fragments was performed by FACS analysis of the agglutination samples.
row,binding result,Binder
1,binds,B1
2,binds,B2
3,binds,B3
4,binds,B4
5,binds,B5
6,binds,B6
7,binds,B7
8,binds,B8
9,binds,B9
10,binds,B10
